Source: patent US10640556B2, “Anti amphiregulin antibodies, compositions comprising same and uses thereof” (Yeda Research and Development Co. Ltd., priority 2015, dated 2020)

T1: human AREG (Homo sapiens, UniProt P15514)
T1 sequence (P15514 101-198 limits assumed): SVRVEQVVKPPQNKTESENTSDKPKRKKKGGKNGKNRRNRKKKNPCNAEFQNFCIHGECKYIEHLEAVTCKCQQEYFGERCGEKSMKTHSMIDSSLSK


Tests used:
EGFR [1] = biological target: T2, EGFR (Homo sapiens, UniProt P00533); test: Receptor downregulation assay in MCAS cells; assay type: cell-based; parameters: endogenous in cells; host or cells: MCAS, MLS, H358, A549; settings: ligand 10 ng/ml
Experimental: (§1) The cells were later washed and lysed, and the associated radioactivity was determined. […] The cells were later washed and lysed in 1 N NaOH. Cell-associated radioactivity was determined. […] Washed immunocomplexes, along with whole extracts, were immunoblotted with the indicated antibodies.
At the end of the incubation period, the cells were placed on ice, washed with ice cold medium and subjected to mild acid wash (0.2 M Na-acetate buffer, pH 4.5, and 0.5 M NaCl) for 2 minutes, followed by 2 washes in ice cold medium. […] Finally, cells were lysed in 1 N NaOH, and their radioactivity was determined.

EGFR [2] = biological target: T2, EGFR; test: Ligand-induced receptor ubiquitination assay (MCAS, MLS, H358, A549 cells); assay type: cell-based; parameters: endogenous in cells; host or cells: MCAS, MLS, H358, A549; settings: 10 minutes, ligand 100 ng/mL; MCAS, MLS, H358, A549 cells
Experimental: as §1
For determination of ligand-induced receptor ubiquitination, cells were extracted in lysis buffer (50 mM HEPES pH 7.5, 150 mM NaCl, 10% glycerol, 1% Triton X-100, 1 mM EDTA, 1 mM EGTA, 10 mM NaF and 30 mM 3-glycerol phosphate) with freshly added 0.2 mM Na3VO4, a protease inhibitor cocktail and 2 mM N-ethylmaleimide (NEM). Twenty μL of protein G agarose beads and 1 μg of antibody were added to 500 μg of protein lysate. After a 2 hour incubation at 4° C., the immunoprecipitates were collected by centrifugation at 14,000 rpm at 4° C. for 1 minute. The supernatant was discarded and the pellet was washed thrice, prior to electrophoresis.

human AREG [3] = biological target: T1, human AREG; test: Antigenic determinant comparison of anti-AREG mAbs; assay type: binding; settings: data not shown
[4] = tested on: Cal-27 human head and neck cancer cells; test: Cal-27 head and neck tumor xenograft in nude mice; assay type: in vivo; settings: Cal-27 tumors, 300 μg per injection intraperitoneally twice a week
Experimental: Female nude mice were inoculated subcutaneously with Cal-27 human head and neck cancer cells (2×10^6). Once tumors became palpable (5-7 days) mice were randomized and intraperitoneally injected with saline (Control), or with anti-AR mAbs: AR30, AR37 or AR558 (each at 300 μg per injection). Mice were treated with mAbs twice a week and tumor volume was followed. Shown are averages and SD values from at least 5 mice per group.
To test the ability of anti-AREG antibodies to reduce growth of human tumor cells implanted in immunocompromised mice, Cal 27 tumor cells were used which were inoculated subcutaneously and randomized for treatment after tumors became palpable. […] Furthermore, studies testing pairs of two mAbs illustrate their enhanced anti-tumor activities (data not shown), this can be attributed to the fact that the mAbs bind to distinct antigenic determinants of amphiregulin.

EGFR [5] = test: AREG-induced EGFR phosphorylation in HeLa cells (immunoblot); assay type: cell-based, human; settings: for AREG-induced phosphorylation of EGFR: AREG 100 ng/ml, mAb 0.1-50 μg/ml, FIG. 10A
Experimental: FIGS. 6A-6F illustrate AR30, an anti-AREG monoclonal antibody, that inhibits auto-phosphorylation of EGFR. FIG. 6A is a photograph of a Coomassie blue staining of an acrylamide gel showing a purified fraction of AREG isolated from bacteria and purified on a NiNTA column. The molecular weight marker lane indicates a 15 kilodalton band; FIG. 6B, cells were seeded in a 24 well plate, washed and incubated with increasing concentrations of the purified TRX-AREG fusion protein (8.5, 85, 850, 8500 ng/ml). […] Following a 10-min long incubation, the cells were lysed and cleared extracts immunoblotted (IB) with an anti-phosphotyrosine antibody (PY-99); FIG. 6C, 96 well plates were coated with the indicated ligands (0.1 μg/ml), and then incubated for 3 hours with three different mAbs specific to AREG. Thereafter, wells were incubated for two hours with an anti-mouse antibody conjugated to HRP, followed by a 30 minutes incubation with ATBS. […] Serum from non-immunized mice was used as a negative control; FIG. 6E, HeLa cells were pre-incubated with (or without) mAb AR30 (20 μg/mL) and increasing concentrations of AREG. Thereafter, whole cell lysates were immunoblotted (IB) using an antibody specific to the phosphorylated form of EGFR (tyrosine 1068) or an antibody to EGFR; and FIG. 6F, HeLa cells were incubated with (or without) AREG (100 ng/mL) in the presence of increasing concentrations of mAb AR30 (5, 10, 20 and 50 μg/mL). Thereafter, cells were lysed and cleared extracts immunoblotted (IB) using the indicated antibodies.
FIG. 10A illustrates that anti-AREG mAbs inhibit ligand-induced activation of EGFR. HeLa cells were incubated with (or without) AREG (100 ng/ml) in the presence of increasing concentrations of mAb AR30, mAb AR 37 or mAb AR558 (0.1, 0.2, 0.5, 0.75, 1.5, 3.5, 6.25, 12.5, 25 and 50 μg/ml). Thereafter, cells were lysed and cleared extracts immunoblotted (IB) using the indicated antibodies, including an antibody specific to the phosphorylated (active) for of EGFR (pEGFR).

MCF10A cells = test: MTS proliferation assay of MCF10A cells; assay type: cell-based, human; settings: 72 h, absence or presence of AREG, relatively high mAb concentrations
Experimental: Proliferation assays using MTS were performed on MCF10A cells (1,000 cells per well). C ells were plated on the day before and treated for 72 h with the indicated mAbs (1, 5, 10, 20 or 50 ug/mL). Increasing concentrations of the indicated mAbs (either alone or in combination with AREG) were used in medium supplemented with 1% serum and AREG (either at 10 or 100 ng/mL).

MLS ovarian cancer cells = test: MLS ovarian tumor xenograft in nude mice; assay type: in vivo; settings: MLS tumors
Experimental: FIG. 7A, female nude mice (6 weeks old) were inoculated subcutaneously with MLS ovarian cancer cells (2×10^6 per animal). Once tumors became palpable, mice were randomized into two groups. Eleven mice were injected intraperitoneally with an anti-AREG mAb (AR30; 200 μg/mouse; twice a week, on days: 8, 11, 14, 17, and 21). The control group also included 11 mice. Shown are means±S.D. values; FIG. 7B, female nude mice (6 weeks old) were inoculated subcutaneously with MLS ovarian cancer cells (2×10^6 per animal). Once tumors became palpable, mice were randomized into four groups. One group (8 mice) was injected intraperitoneally with the AR30 mAb (100 μg/mouse twice a week, on days: 8, 14, 17, 21, 24 and 28). Another group (8 mice) was treated with cisplatin (5 mg/kg; on days 8 and 21). The fourth group was treated with a combination of mAb AR30 and cisplatin. The control group included 12 mice; and FIG. 7C, the indicated MLS tumors were excised, and their average weights determined. Representative tumors were photographed.
All animal procedures were approved by the Weizmann Institute of Science's review board. Female athymic NCr-nude mice (6 weeks old) were inoculated subcutaneously with 2×10^6 human ovarian MLS cancer cells. Once tumors became palpable (5-7 days), the mice were randomized into groups and injected intraperitoneally at the indicated time points with the indicated monoclonal antibodies, chemotherapy or the combination. Tumor volumes were monitored twice a week, and body weights were measured once a week.

human AREG [6] = biological target: T1, human AREG; test: Plasmon resonance and immunoblotting of EGF-family ligands with AR30; assay type: binding
Experimental: FIGS. 6A-6F illustrate AR30, an anti-AREG monoclonal antibody, that inhibits auto-phosphorylation of EGFR. FIG. 6A is a photograph of a Coomassie blue staining of an acrylamide gel showing a purified fraction of AREG isolated from bacteria and purified on a NiNTA column. The molecular weight marker lane indicates a 15 kilodalton band; FIG. 6B, cells were seeded in a 24 well plate, washed and incubated with increasing concentrations of the purified TRX-AREG fusion protein (8.5, 85, 850, 8500 ng/ml). […]
SPR was performed on a BIAcore 3000 instrument (BIAcore, Uppsala, Sweden). […] The net signal was obtained by subtracting the blank signal (plain dextran matrix) from the signal recorded from the immobilized surface. The association phase for analyte binding to all ligands was followed for 4 minutes, and dissociation phases were monitored for 3 minutes. […] The response was monitored as a function of time (sensorgram). […]
To functionally characterize a selected anti-AREG mAb, its specificity was tested using an Enzyme-Linked Immunosorbent Assay (ELISA) assay covered with different ligands. […] The AR30 affinity to the different ligand was assessed by Surface plasmon resonance (SPR).

Row | EGFR downregulation (EGFR [1]) | ubiquitination of EGFR (EGFR [2]) | binding of AR30 with human AREG (human AREG [6]) | Molecule | antigenic determinant targeted (human AREG [3]) | tumor growth [4] | AREG-induced phosphorylation of EGFR (EGFR [5]) | inhibition of proliferation (MCF10A cells) | tumor growth (MLS ovarian cancer cells; AR30 100 μg/mouse twice a week, cisplatin 5 mg/kg, FIG. 7B) | tumor growth (MLS ovarian cancer cells; antibodies injected into the peritoneum, six weeks, data not shown) | anti-tumor effect compared with cetuximab (MLS ovarian cancer cells; six weeks, data not shown) | recognition of other EGFR ligands (human AREG [6]) | effect of AREG on receptor phosphorylation (EGFR [5]; AR30 5-50 μg/mL, FIGS. 6E-6F) | downstream signaling to ERK (phosphorylated ERK) (EGFR [5]; data not shown)
1 | 70-75% | strong ubiquitination |  | TGF-alpha: transforming growth factor alpha, high-affinity EGFR ligand |  |  |  |  |  |  |  |  |  | 
2 |  |  |  | AR558: anti-AREG monoclonal antibody from AREG knockout mice; heavy chain SEQ ID NO: 30, light chain SEQ ID NO: 46 (antibody, V domains shown, AR558 heavy chain IgG complete amino acids coding sequence; AR558 light chain (kappa) complete amino acids coding sequence) VH: EVQLQQSGAELVKPGASVKLSCTASGFNIKDTYMHWVKQRPEQGLEWIGRIDPANRSTKYDPKFQGKATITADTSSNTADLHLSSLTSEDTAVYYCARLYGDSVWYFDVWGAGTTVTVSSAKT VL: QIVLTQSPAILSASPGEKVTMTCRAGSSVNYIHWYQQKPGSSPKPWIYATSNLASGVPARFSGSGSGTSYSLTISRVEAEDAATYYCQQWSGYPPMLTFGAGTKLELKR | engages a different determinant of human AREG | exceeded the activity of either antibody | low concentrations of the antibodies were sufficient for blocking | Moderate inhibition |  |  |  |  |  | 
3 |  |  | high affinity binding | AR30: anti-AREG monoclonal antibody; heavy chain SEQ ID NO: 2, light chain SEQ ID NO: 16 (antibody, V domains shown, AR30 heavy chain (IgG) complete amino acids coding sequence; AR30 light chain (kappa) complete amino acids coding sequence) VH: EVQLQQSGAELVRSGASVKLSCTASGFNIKDSYMHWVKQRPEQGLEWIGWVDPDNGDTEYAPEFQGRATLTADTFSSTAYLQLTSLTSEDTAVYYCNAPSTYGHYGFAYWGQGTLVTVSA VL: DIVMTQAAPSVPVTPGESVSISCRSSKSLLHSNGKAYLYWFLQRPGQSPQLLIYRMSNLASGVPDRFSGSGSGTAFTLRISRVEAEDVGVYYCMQHLEYPLTFGAGTKLELKR | engages a different determinant of human AREG | comparably inhibit tumor growth | low concentrations of the antibodies were sufficient for blocking | Moderate inhibition | only mildly inhibited | partly inhibited tumor growth | at least as effective as cetuximab | recognized no other EGFR ligand, except for the human form of HB-EGF | only partially reduced | insufficient for blocking downstream signaling to ERK
